Sequences and labels used below:
B1: Subtilisin-chymotrypsin inhibitor-2A, P01053 (parent)
chain: MSSVEKKPEGVNTGAGDRHNLKTEWPELVGKSVEEAKKVILQDKPEAQIIVLPVGTIVTMEYRIDRVRLFVDKLDNIAQVPRVG

This data set covers variants of B1. As to conditions: Hordeum vulgare; pH 6.25; 25 °C; GdnHCl; Fluorescence; MES 50 mM; reversible: yes; structure 2CI2; whole UniProt chain shown.

Consider MSSVEKKPEGVNTGAGDRHNLKTEWPELVGKSVEEAKKVILQDKPEAQIIVAPVGTIVTMEYRIDRVRLLVDKLDNIAQVPRVG [L52A F70L], for which the “ddG of mutation (higher = less stable)” value turned out to be 3.25 kcal/mol, the denaturant m value came out at 1.94 kcal/mol/M, the “denaturant midpoint (higher = more stable)” value (“denaturant midpoint” for short) turned out to be 2.24 M and the unfolding free energy turned out to be 4.35 kcal/mol.

Regarding MSSVEKKPEGVNTGAGDRHNLKTEWAELVGKSVEEGKKVILQDKPEAQIIVLPVGTIVTMEYRIDRVRLFVDKLDNIAQVPRVG [P26A A36G], the “ddG of mutation (higher = less stable)” value turned out to be 1.3 kcal/mol, the denaturant m value is 2.39 kcal/mol/M, the “denaturant midpoint” value was 2.64 M and the unfolding free energy is 6.3 kcal/mol.

Regarding MSSVEKKPEGVNTGAGDRHNLATEWPELVGKSVEEAKKVILQDKPEAQIIVLPVGTIVTMEYRIDRVRLFVDKLDNIAQVPRVG [K22A], the “ddG of mutation (higher = less stable)” value was found to be 1.04 kcal/mol, the denaturant m value stood at 1.77 kcal/mol/M, the “denaturant midpoint” value is 3.72 M and the unfolding free energy was 6.56 kcal/mol.

MSSVEKKPEGVNTGAGDRHNLKTEWPELVGKSVEEAKKVILQDKPEAQIIVLPVGSIVTMEYRIDRVRLFVDKLDNIAQVPRVG [T56S]: the “ddG of mutation (higher = less stable)” value was 0.98 kcal/mol, the denaturant m value came out at 1.66 kcal/mol/M, the “denaturant midpoint” value is 3.99 M and the unfolding free energy worked out at 6.62 kcal/mol.

Regarding MSSVEKKPEGVNTGAGDRHNLKTEWPELVGKSVEEAKKVILQDKPEAQIIVLPVGVIVTMEYRIDRVRLFVDKLDNIAQVPRVG [T56V], the “ddG of mutation (higher = less stable)” value was 1.57 kcal/mol, the denaturant m value was determined as 1.67 kcal/mol/M, the “denaturant midpoint” value amounted to 3.61 M and the unfolding free energy was found to be 6.03 kcal/mol.

As for MSSVEKKPEGVNTGAGDRHNLKTEWPELVGKSVEEAKKVILQDKPEAQIIVLPVGAIVTMEYRIDRVRLFVDKLDNIAQVPRVG [T56A], the “ddG of mutation (higher = less stable)” value stood at 1.42 kcal/mol, the denaturant m value turned out to be 1.5 kcal/mol/M, the “denaturant midpoint” value was determined as 4.12 M and the unfolding free energy was determined as 6.18 kcal/mol.

For MSSVEKKPEGVNTGAGDRHNLKTEWPELVGKGVEEAKKVILQDKPEAQIIVLPVGTIVTMEYRIDRVRLFVDKLDNIAQVPRVG [S32G], the “ddG of mutation (higher = less stable)” value came to 0.06 kcal/mol, the denaturant m value stood at 2.1 kcal/mol/M, the “denaturant midpoint” value was 3.59 M and the unfolding free energy stood at 7.54 kcal/mol.

On to MSSVEKKPEGVNTGAGDRHNLKTEWPELVGKAVEEAKKVILQDKPEAQIIVLPVGTIVTMEYRIDRVRLFVDKLDNIAQVPRVG [S32A], for which the “ddG of mutation (higher = less stable)” value turned out to be 1.02 kcal/mol, the denaturant m value worked out at 1.86 kcal/mol/M, the “denaturant midpoint” value was 3.54 M and the unfolding free energy was 6.58 kcal/mol.

For MSSVEKKPEGVNTGAGDRHNLKTEWPELVGKSVEEAKKVILQDKPEAQIIVLPVGTIATMEYRIDRVRLLVDKLDNIAQVPRVG [V58A F70L], the “ddG of mutation (higher = less stable)” value was determined as 2.2 kcal/mol, the denaturant m value came to 2.02 kcal/mol/M, the “denaturant midpoint” value was determined as 2.67 M and the unfolding free energy is 5.4 kcal/mol.

In the case of MSSVEKKPEGVNTGAGDRHNLKTEWPELVGKSVAAAKKVILQDKPEAQIIVLPVGTIVTMEYRIDRVRLFVDKLDNIAQVPRVG [E34A E35A], the “ddG of mutation (higher = less stable)” value is -0.02 kcal/mol, the denaturant m value was 2.11 kcal/mol/M, the “denaturant midpoint” value was determined as 3.61 M and the unfolding free energy turned out to be 7.62 kcal/mol.

Consider MSSVEKKPEGVNTGAGDRHNLKTEWPELVGKSVEEAKKVILQDKPEAQIIVVPVGTIVTMEYRIDRVRLAVDKLDNIAQVPRVG [L52V F70A], for which the “ddG of mutation (higher = less stable)” value came out at 3.26 kcal/mol, the denaturant m value worked out at 1.94 kcal/mol/M, the “denaturant midpoint” value is 2.24 M and the unfolding free energy worked out at 4.34 kcal/mol.

As to MSSVEKKPEGVNTGAGDRHNLKTEWPELVGKSVEEAKKVILQDKPEAQIIVVPVGTIVTMEYRIDRVRLLVDKLDNIAQVPRVG [L52V F70L], the “ddG of mutation (higher = less stable)” value was determined as 1.08 kcal/mol, the denaturant m value is 2.37 kcal/mol/M, the “denaturant midpoint” value came to 2.75 M and the unfolding free energy was found to be 6.52 kcal/mol.

Consider MSSVEKKPEGVNTGAGDRHNLKTEWPELVGKSVEEAKKVILQDKPAAQIIVLPVGTIVTMEYRIDRVRLFVDKLDNIAQVPRVG [E46A], for which the “ddG of mutation (higher = less stable)” value was 0.78 kcal/mol, the denaturant m value came to 1.78 kcal/mol/M, the “denaturant midpoint” value amounted to 3.83 M and the unfolding free energy is 6.82 kcal/mol.

MSSVEKKPEGVNTGAGDRHNLKTEWPELVGKSVEEAKKVILQDKAEAQIIVLPVGTIVTMEYRIDRVRLFVDKLDNIAQVPRVG [P45A]: the “ddG of mutation (higher = less stable)” value turned out to be 1.22 kcal/mol, the denaturant m value was determined as 2.07 kcal/mol/M, the “denaturant midpoint” value was 3.09 M and the unfolding free energy is 6.38 kcal/mol.

As to MSSVEKKPEGVNTGAGDRHNLKTEWPELVGKSVEEAKKVILQDKPEAQIIVLAVGTIVTMEYRIDRVRLFVDKLDNIAQVPRVG [P53A], the “ddG of mutation (higher = less stable)” value was 0.58 kcal/mol, the denaturant m value was 1.79 kcal/mol/M, the “denaturant midpoint” value was 3.91 M and the unfolding free energy was determined as 7.02 kcal/mol.

On to MSSVEKKPEGVNTGAGDRHNLKTEWPELVGKSVEEAKKVILQDKPEAMIIVLPVGTIVTLEYRIDRVRLFVDKLDNIAQVPRVG [Q48M M60L], for which the “ddG of mutation (higher = less stable)” value is 0.18 kcal/mol, the denaturant m value turned out to be 1.78 kcal/mol/M, the “denaturant midpoint” value worked out at 4.16 M and the unfolding free energy was 7.42 kcal/mol.

Take MSSVEKKPEGVNTGAGDRHNLKTEWPELVGKSVEEAKKVILQAKPEAQIIVLPVGTIVTMEYRIDRVRLFVDKLDNIAQVPRVG [D43A]: the “ddG of mutation (higher = less stable)” value came to 1.05 kcal/mol, the denaturant m value turned out to be 1.87 kcal/mol/M, the “denaturant midpoint” value is 3.51 M and the unfolding free energy stood at 6.55 kcal/mol.

MSSVEKKPEGVNTGAGDRHNLKTEWPELVGKSVEEAKKVILQDAPEAQIIVLPVGTIVTMEYRIDRVRLFVDKLDNIAQVPRVG [K44A]: the “ddG of mutation (higher = less stable)” value was 1.85 kcal/mol, the denaturant m value amounted to 1.57 kcal/mol/M, the “denaturant midpoint” value came out at 3.67 M and the unfolding free energy came out at 5.75 kcal/mol.

For the variant MSSVEKKPEGVNTGAGDRHNLKTEWPELVGKSVEEAKKVILQDKPEAQIIVAPVGTIATMEYRIDRVRLLVDKLDNIAQVPRVG [L52A V58A F70L], the “ddG of mutation (higher = less stable)” value is 3.34 kcal/mol, the denaturant m value came out at 1.93 kcal/mol/M, the “denaturant midpoint” value is 2.21 M and the unfolding free energy stood at 4.26 kcal/mol.

Regarding MSSVEKKPEGVNTGAGDRHNLKTEWPELVGKSVEEAKKVIGQDKPEAQIIVLPVGTIVTMEYRIDRVRLFVDKLDNIAQVPRVG [L41G], the “ddG of mutation (higher = less stable)” value amounted to 2.09 kcal/mol, the denaturant m value came to 1.68 kcal/mol/M, the “denaturant midpoint” value turned out to be 3.29 M and the unfolding free energy was 5.51 kcal/mol.

As for MSSVEKKPEGVNTGAGDRHNLKTEWPELVGKSVEEAKKVIAQDKPEAQIIVLPVGTIVTMEYRIDRVRLFVDKLDNIAQVPRVG [L41A], the “ddG of mutation (higher = less stable)” value is 1.21 kcal/mol, the denaturant m value was 1.93 kcal/mol/M, the “denaturant midpoint” value stood at 3.32 M and the unfolding free energy is 6.39 kcal/mol.

With MSSVEKKPEGVNTGAGDRHNLKTEWPELVGKSVEEAKKVILQDKPEAQIIVAPVGTIATMEYRIDRVRLFVDKLDNIAQVPRVG [L52A V58A], the “ddG of mutation (higher = less stable)” value amounted to 2.95 kcal/mol, the denaturant m value is 1.96 kcal/mol/M, the “denaturant midpoint” value is 2.37 M and the unfolding free energy was found to be 4.65 kcal/mol.

As for MSSVEKKPEGVNTGAGDRHNLKTEWPELVGKSVEEAKGVILQDKPEAQIIVLPVGTIVTMEYRIDRVRLFVDKLDNIAQVPRVG [K38G], the “ddG of mutation (higher = less stable)” value was 1.58 kcal/mol, the denaturant m value came to 1.73 kcal/mol/M, the “denaturant midpoint” value worked out at 3.49 M and the unfolding free energy came out at 6.02 kcal/mol.

For MSSVEKKPEGVNTGAGDRHNLKTEWPELVGKSVEEAKAVILQDKPEAQIIVLPVGTIVTMEYRIDRVRLFVDKLDNIAQVPRVG [K38A], the “ddG of mutation (higher = less stable)” value amounted to 0.99 kcal/mol, the denaturant m value came to 1.61 kcal/mol/M, the “denaturant midpoint” value was determined as 4.11 M and the unfolding free energy stood at 6.61 kcal/mol.

For MSSVEKKPEGVNTGAGDRHNLKTEWPELVGKGVAAAKKVILQDKPEAQIIVLPVGTIVTMEYRIDRVRLFVDKLDNIAQVPRVG [S32G E34A E35A], the “ddG of mutation (higher = less stable)” value came to 0.81 kcal/mol, the denaturant m value came to 2.15 kcal/mol/M, the “denaturant midpoint” value came to 3.16 M and the unfolding free energy is 6.79 kcal/mol.

MSSVEKKPEGVNTGAGDRHNLKTEWPELVGKSVEEAKKVVLQDKPEAQIIVLPVGTIVTMEYRIDRVRLFVDKLDNIAQVPRVG [I40V]: the “ddG of mutation (higher = less stable)” value came out at 0.97 kcal/mol, the denaturant m value amounted to 1.99 kcal/mol/M, the “denaturant midpoint” value is 3.33 M and the unfolding free energy is 6.63 kcal/mol.

The record behind these values is FireProtDB (doi:10.1006/jmbi.1995.0616).
